In article PMC4210143:

Target: soluble recombinant NadA_(Δ351-405) (rNadA), Neisseria meningitidis adhesin A lacking the membrane anchor region (Neisseria meningitidis) (UniProt Q8KH85)
Assay: SEC-MALS; rNadA 1,7 mg/ml in 10 mM NaH2PO4 150 mM NaCl pH 7.2, heated at 37°C for 30 min, 1, 2 and 4 hrs; TSK Super SW3000, eluted in 0.1 M NaH2PO4, 0,1 M NaHSO4 pH 7.0; MALLS detector Dawn TREOS

## soluble recombinant NadA_(Δ351-405) (rNadA), Neisseria meningitidis adhesin A lacking the membrane anchor region (from UniProt Q8KH85 1-350) (domain or fragment)
  percent of the preparation present as the native trimer: 95%
  stoichiometry N: 3
